According to patent US20240279325A1 (Chugai, published 2024):

T1: FcγRIIb extracellular domain with C-terminal His tag (human, UniProt P31994 43-217)
T1 construct: extracellular domain
T1 sequence (looked up): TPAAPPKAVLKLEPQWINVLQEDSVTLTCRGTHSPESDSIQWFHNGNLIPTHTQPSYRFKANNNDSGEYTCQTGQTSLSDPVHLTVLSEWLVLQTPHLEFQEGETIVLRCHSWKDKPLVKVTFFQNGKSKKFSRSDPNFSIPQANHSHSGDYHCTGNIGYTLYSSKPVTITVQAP

T2: FcγRIIa type R (allotype R131) extracellular domain with C-terminal His tag (human, UniProt P12318 34-217)
T2 construct: extracellular domain; also called FcγRIIaR; FcγRIIa R type
T2 sequence (looked up): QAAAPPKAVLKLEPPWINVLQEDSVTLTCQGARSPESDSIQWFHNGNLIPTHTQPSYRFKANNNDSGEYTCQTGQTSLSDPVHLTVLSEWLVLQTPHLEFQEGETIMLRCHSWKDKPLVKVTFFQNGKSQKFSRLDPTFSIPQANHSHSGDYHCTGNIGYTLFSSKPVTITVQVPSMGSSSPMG


What was measured:
[1] = molecular target: T1, FcγRIIb extracellular domain with …; assay: SPR; KD for FcγRIIaH divided by KD for FcγRIIb
[2] = molecular target: T1, FcγRIIb extracellular domain with …; assay: SPR; KD for FcγRIIaR divided by KD for FcγRIIb
[3] = molecular target: T2, FcγRIIa type R (allotype R131) …; assay: SPR; KD of IL6R-B3/IL6R-L divided by KD of the variant
[4] = molecular target: T1, FcγRIIb extracellular domain with …; assay: as above

KD(IIaH)/KD(IIb) [1]	KD(IIaR)/KD(IIb) [2]	KD(IIaR) OF PARENT POLYPEPTIDE/KD(IIaR) OF ALTERED POLYPEPTIDE [3]	KD(IIb) OF PARENT POLYPEPTIDE/KD(IIb) OF ALTERED POLYPEPTIDE [4]	Binder
724	38.8	9.3	1020	IL6R-BP491/IL6R-L (antibody, human IgG1, kappa, name in EU numbering, also called IL6R-491/IL6R-L; copies: 2 + 2) heavy: QVQLQESGPGLVKPSETLSLTCAVSGHSISHDHAWSWVRQPPGEGLEWIGFISYSGITNYNPSLQGRVTISRDNSKNTLYLQMNSLRAEDTAVYYCARSLARTTAMDYWGEGTLVTVSSASTKGPSVFPLAPSSKSTSGGTAALGCLVKDYFPEPVTVSWNSGALTSGVHTFPAVLQSSGLYSLSSVVTVPSSSLGTQTYICNVNHKPSNTKVDKKVEPKSCDKTHTCPPCPAPELLGDDSVFLFPPKPKDTLMISRTPEVTCVVIDVAEEDGEVKFNWYVDGVEVHNAKTKPREEQDNSTYRVVSVLTVLHQDWLNGKEYKCKVSNKALPRPIEKTISKAKGQPREPQVYTLPPSRDELTKNQVSLTCLVKGFYPSDIAVEWESNGQPENNYKTTPPVLDSDGSFFLYSKLTVDKSRWQQGNVFSCSVMHEALHNHYTQESLSLSP light: not shown
678	38.8	1.2	131	IL6R-BP492/IL6R-L (antibody, human IgG1, kappa, name in EU numbering, copies: 2 + 2) heavy: QVQLQESGPGLVKPSETLSLTCAVSGHSISHDHAWSWVRQPPGEGLEWIGFISYSGITNYNPSLQGRVTISRDNSKNTLYLQMNSLRAEDTAVYYCARSLARTTAMDYWGEGTLVTVSSASTKGPSVFPLAPSSKSTSGGTAALGCLVKDYFPEPVTVSWNSGALTSGVHTFPAVLQSSGLYSLSSVVTVPSSSLGTQTYICNVNHKPSNTKVDKKVEPKSCDKTHTCPPCPAPELLGGDSVFLFPPKPKDTLMISRTPEVTCVVIDVAEEDGEVKFNWYVDGVEVHNAKTKPREEQYNSTYRVVSVLTVLHQDWLNGKEYKCKVSNKALPAPIEKTISKAKGQPREPQVYTLPPSRDELTKNQVSLTCLVKGFYPSDIAVEWESNGQPENNYKTTPPVLDSDGSFFLYSKLTVDKSRWQQGNVFSCSVMHEALHNHYTQESLSLSP light: not shown

Further lines, the binder ahead of its results:

Binder	KD(IIaH)/KD(IIb) [1]	KD(IIaR)/KD(IIb) [2]	KD(IIaR) OF PARENT POLYPEPTIDE/KD(IIaR) OF ALTERED POLYPEPTIDE [3]	KD(IIb) OF PARENT POLYPEPTIDE/KD(IIb) OF ALTERED POLYPEPTIDE [4]
IL6R-BP496/IL6R-L (antibody, human IgG1, kappa, name in EU numbering, copies: 2 + 2) heavy: QVQLQESGPGLVKPSETLSLTCAVSGHSISHDHAWSWVRQPPGEGLEWIGFISYSGITNYNPSLQGRVTISRDNSKNTLYLQMNSLRAEDTAVYYCARSLARTTAMDYWGEGTLVTVSSASTKGPSVFPLAPSSKSTSGGTAALGCLVKDYFPEPVTVSWNSGALTSGVHTFPAVLQSSGLYSLSSVVTVPSSSLGTQTYICNVNHKPSNTKVDKKVEPKSCDKTHTCPPCPAPDLLGDDSVFLFPPKPKDTLMISRTPEVTCVVIDVAEEDGEVKFNWYVDGVEVHNAKTKPREEQDNSTYRVVSVLTVLHQDWLNGKEYKCKVSNKALPAPIEKTISKAKGQPREPQVYTLPPSRDELTKNQVSLTCLVKGFYPSDIAVEWESNGQPENNYKTTPPVLDSDGSFFLYSKLTVDKSRWQQGNVFSCSVMHEALHNHYTQESLSLSP light: not shown	201	25.5	2.3	168
IL6R-BP497/IL6R-L (antibody, human IgG1, kappa, name in EU numbering, copies: 2 + 2) heavy: QVQLQESGPGLVKPSETLSLTCAVSGHSISHDHAWSWVRQPPGEGLEWIGFISYSGITNYNPSLQGRVTISRDNSKNTLYLQMNSLRAEDTAVYYCARSLARTTAMDYWGEGTLVTVSSASTKGPSVFPLAPSSKSTSGGTAALGCLVKDYFPEPVTVSWNSGALTSGVHTFPAVLQSSGLYSLSSVVTVPSSSLGTQTYICNVNHKPSNTKVDKKVEPKSCDKTHTCPPCPAPDLLGDDSVFLFPPKPKDTLMISRTPEVTCVVIDVAEEDGEVKFNWYVDGVEVHNAKTKPREEQYNSTYRVVSVLTVLHQDWLNGKEYKCKVSNKGLPRPIEKTISKAKGQPREPQVYTLPPSRDELTKNQVSLTCLVKGFYPSDIAVEWESNGQPENNYKTTPPVLDSDGSFFLYSKLTVDKSRWQQGNVFSCSVMHEALHNHYTQESLSLSP light: not shown	236	21	12.9	764
